Results: publication PMC3592467 (Nucleic Acids Research, 2012)

Columns and labels:
MBD3-GFP = molecular target: T1, MBD3-GFP (UniProt O95983 1-291); experiment: affinity purification with mass spectrometry
T1 sequence: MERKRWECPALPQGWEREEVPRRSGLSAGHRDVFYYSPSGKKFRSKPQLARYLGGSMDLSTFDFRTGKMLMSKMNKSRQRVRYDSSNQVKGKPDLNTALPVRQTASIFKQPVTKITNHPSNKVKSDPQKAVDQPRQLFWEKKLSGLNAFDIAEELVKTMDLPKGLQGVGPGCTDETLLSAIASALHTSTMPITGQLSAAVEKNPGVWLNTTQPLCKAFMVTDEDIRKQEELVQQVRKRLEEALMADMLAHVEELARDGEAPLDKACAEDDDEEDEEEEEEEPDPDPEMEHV

EED-GFP = EED-GFP (UniProt O75530 1-441); experiment: affinity purification with mass spectrometry
Sequence of EED-GFP (O75530 whole entry): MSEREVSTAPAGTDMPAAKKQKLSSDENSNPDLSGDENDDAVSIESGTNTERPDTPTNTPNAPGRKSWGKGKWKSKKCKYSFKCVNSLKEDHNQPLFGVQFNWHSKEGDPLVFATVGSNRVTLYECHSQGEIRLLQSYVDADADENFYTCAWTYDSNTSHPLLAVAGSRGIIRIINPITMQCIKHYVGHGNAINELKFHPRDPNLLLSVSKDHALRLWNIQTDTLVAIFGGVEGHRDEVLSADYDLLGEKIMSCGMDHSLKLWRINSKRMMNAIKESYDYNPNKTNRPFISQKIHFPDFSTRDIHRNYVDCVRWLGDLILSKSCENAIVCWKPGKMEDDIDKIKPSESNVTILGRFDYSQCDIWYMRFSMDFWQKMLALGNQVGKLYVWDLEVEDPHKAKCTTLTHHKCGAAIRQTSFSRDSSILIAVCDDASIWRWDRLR

B1: ZMYND8 (natural protein)
chain: MDISTRSKDPGSAERTAQKRKFPSPPHSSNGHSPQDTSTSPIKKKKKPGLLNSNNKEQSELRHGPFYYMKQPLTTDPVDVVPQDGRNDFYCWVCHREGQVLCCELCPRVYHAKCLRLTSEPEGDWFCPECEKITVAECIETQSKAMTMLTIEQLSYLLKFAIQKMKQPGTDAFQKPVPLEQHPDYAEYIFHPMDLCTLEKNAKKKMYGCTEAFLADAKWILHNCIIYNGGNHKLTQIAKVVIKICEHEMNEIEVCPECYLAACQKRDNWFCEPCSNPHPLVWAKLKGFPFWPAKALRDKDGQVDARFFGQHDRAWVPINNCYLMSKEIPFSVKKTKSIFNSAMQEMEVYVENIRRKFGVFNYSPFRTPYTPNSQYQMLLDPTNPSAGTAKIDKQEKVKLNFDMTASPKILMSKPVLSGGTGRRISLSDMPRSPMSTNSSVHTGSDVEQDAEKKATSSHFSASEESMDFLDKSTASPASTKTGQAGSLSGSPKPFSPQLSAPITTKTDKTSTTGSILNLNLDRSKAEMDLKELSESVQQQSTPVPLISPKRQIRSRFQLNLDKTIESCKAQLGINEISEDVYTAVEHSDSEDSEKSDSSDSEYISDDEQKSKNEPEDTEDKEGCQMDKEPSAVKKKPKPTNPVEIKEELKSTSPASEKADPGAVKDKASPEPEKDFSEKAKPSPHPIKDKLKGKDETDSPTVHLGLDSDSESELVIDLGEDHSGREGRKNKKEPKEPSPKQDVVGKTPPSTTVGSHSPPETPVLTRSSAQTSAAGATATTSTSSTVTVTAPAPAATGSPVKKQRPLLPKETAPAVQRVVWNSSSKFQTSSQKWHMQKMQRQQQQQQQQNQQQQPQSSQGTRYQTRQAVKAVQQKEITQSPSTSTITLVTSTQSSPLVTSSGSMSTLVSSVNADLPIATASADVAADIAKYTSKMMDAIKGTMTEIYNDLSKNTTGSTIAEIRRLRIEIEKLQWLHQQELSEMKHNLELTMAEMRQSLEQERDRLIAEVKKQLELEKQQAVDETKKKQWCANCKKEAIFYCCWNTSYCDYPCQQAHWPEHMKSCTQSATAPQQEADAEVNTETLNKSSQGSSSSTQSAPSETASASKEKETSAEKSKESGSTLDLSGSRETPSSILLGSNQGSDHSRSNKSSWSSSDEKRGSTRSDHNTSTSTKSLLPKESRLDTFWD
MBD3-GFP
  stoichiometry N: ~0.01 relative to MBD3

B2: C17orf96 (natural protein)
chain: METLCPAPRLAVPASPRGSPCSPTPRKPCRGTQEFSPLCLRALAFCALAKPRASSLGPGPGELAARSPVLRGPQAPLRPGGWAPDGLKHLWAPTGRPGVPNTAAGEDADVAACPRRGEEEEGGGGFPHFGVRSCAPPGRCPAPPHPRESTTSFASAPPRPAPGLEPQRGPAASPPQEPSSRPPSPPAGLSTEPAGPGTAPRPFLPGQPAEVDGNPPPAAPEAPAASPSTASPAPAAPGDLRQEHFDRLIRRSKLWCYAKGFALDTPSLRRGPERPPAKGPARGAAKKRRLPAPPPRTAQPRRPAPTLPTTSTFSLLNCFPCPPALVVGEDGDLKPASSLRLQGDSKPPPAHPLWRWQMGGPAVPEPPGLKFWGINMDES
EED-GFP
  stoichiometry N: 0.47 relative to EED

B3: C10orf12 (natural protein)
chain: MQRMIQQFAAEYTSKNSSTQDPSQPNSTKNQSLPKASPVTTSPTAATTQNPVLSKLLMADQDSPLDLTVRKSQSEPSEQDGVLDLSTKKSPCAGSTSLSHSPGCSSTQGNGENSTEAKAVDSNNQSKSPLEKFMVKLCTHHQKQFIRVLNDLYTESQPGTEDLQPSDSGAMDVSTCNAGCAQLSTKHKEKDALCLDMKSSASVDLFVDSSDSHSPLHLTEQTPKKPPPEINPVDGRENALTVVQKDSSELPTTKSNSINSSSVDSFTPGYLTASNCSSVNFHHIPKILEGQTTGQEQDTNVNICEDGKDHMQSSALVESLITVKMAAENSEEGNTCIIPQRNLFKALSEEAWNSGFMGNSSRTADKENTLQCPKTPLRQDLEANEQDARPKQENHLHSLGRNKVGYHLHPSDKGQFDHSKDGWLGPGPMPAVHKAANGHSRTKMISTSIKTARKSKRASGLRINDYDNQCDVVYISQPITECHFENQKSILSSRKTARKSTRGYFFNGDCCELPTVRTLARNLHSQEKASCSALASEAVFTPKQTLTIPAPRHTVDVQLPREDNPEEPSKEITSHEEGGGDVSPRKEPQEPEVCPTKIKPNLSSSPRSEETTASSLVWPLPAHLPEEDLPEGGSTVSAPTASGMSSPEHNQPPVALLDTEEMSVPQDCHLLPSTESFSGGVSEDVISRPHSPPEIVSREESPQCSENQSSPMGLEPPMSLGKAEDNQSISAEVESGDTQELNVDPLLKESSTFTDENPSETEESEAAGGIGKLEGEDGDVKCLSEKDTYDTSIDSLEENLDKKKKGKKFPEASDRCLRSQLSDSSSADRCLRNQSSDSSSACLEIKVPKNPSAKRSKKEGHPGGTTPKGLLPDSFHTETLEDTEKPSVNERPSEKDAEQEGEGGGIITRQTLKNMLDKEVKELRGEIFPSRDPITTAGQPLPGERLEIYVQSKMDEKNAHIPSESIACKRDPEQAKEEPGHIPTQHVEEAVNEVDNENTQQKDDESDAPCSSLGLSSSGSGDAARAPKSVPRPKRLTSSTYNLRHAHSLGSLDASKVTSEKEAAQVNPIMPKENGASESGDPLDEDDVDTVVDEQPKFMEWCAEEENQELIANFNAQYMKVQKGWIQLEKEGQPTPRARNKSDKLKEIWKSKKRSRKCRSSLESQKCSPVQMLFMTNFKLSNVCKWFLETTETRSLVIVKKLNTRLPGDVPPVKHPLQKYAPSSLYPSSLQAERLKKHLKKFPGATPAKNNWKMQKLWAKFRENPDQVEPEDGSDVSPGPNSEDSIEEVKEDRNSHPPANLPTPASTRILRKYSNIRGKLRAQQRLIKNEKMECPDALAVESKPSRKSVCINPLMSPKLALQVDADGFPVKPKSTEGMKGRKGKQVSEILPKAEVQSKRKRTEGSSPPDSKNKGPTVKASKEKHADGATKTPAAKRPAARDRSSQPPKKTSLKENKVKIPKKSAGKSCPPSRKEKENTNKRPSQSIASETLTKPAKQKGAGESSSRPQKATNRKQSSGKTRARPSTKTPESSAAQRKRKLKAKLDCSHSKRRRLDAK
EED-GFP
  stoichiometry N: ~0.06 relative to the core subunits

B4: ZNF592 (natural protein)
chain: MGDMKTPDFDDLLAAFDIPDPTSLDAKEAIQTPSEENESPLKPPGICMDESVSLSHSGSAPDVPAVSVIVKNTSRQESFEAEKDHITPSLLHNGFRGSDLPPDPHNCGKFDSTFMNGDSARSFPGKLEPPKSEPLPTFNQFSPISSPEPEDPIKDNGFGIKPKHSDSYFPPPLGCGAVGGPVLEALAKFPVPELHMFDHFCKKEPKPEPLPLGSQQEHEQSGQNTVEPHKDPDATRFFGEALEFNSHPSNSIGESKGLARELGTCSSVPPRQRLKPAHSKLSSCVAALVALQAKRVASVTKEDQPGHTKDLSGPTKESSKGSPKMPKSPKSPRSPLEATRKSIKPSDSPRSICSDSSSKGSPSVAASSPPAIPKVRIKTIKTSSGEIKRTVTRILPDPDDPSKSPVGSPLGSAIAEAPSEMPGDEVPVEEHFPEAGTNSGSPQGARKGDESMTKASDSSSPSCSSGPRVPKGAAPGSQTGKKQQSTALQASTLAPANLLPKAVHLANLNLVPHSVAASVTAKSSVQRRSQPQLTQMSVPLVHQVKKAAPLIVEVFNKVLHSSNPVPLYAPNLSPPADSRIHVPASGYCCLECGDAFALEKSLSQHYGRRSVHIEVLCTLCSKTLLFFNKCSLLRHARDHKSKGLVMQCSQLLVKPISADQMFVSAPVNSTAPAAPAPSSSPKHGLTSGSASPPPPALPLYPDPVRLIRYSIKCLECHKQMRDYMVLAAHFQRTTEETEGLTCQVCQMLLPNQCSFCAHQRIHAHKSPYCCPECGVLCRSAYFQTHVKENCLHYARKVGYRCIHCGVVHLTLALLKSHIQERHCQVFHKCAFCPMAFKTASSTADHSATQHPTQPHRPSQLIYKCSCEMVFNKKRHIQQHFYQNVSKTQVGVFKCPECPLLFVQKPELMQHVKSTHGVPRNVDELSSLQSSADTSSSRPGSRVPTEPPATSVAARSSSLPSGRWGRPEAHRRVEARPRLRNTGWTCQECQEWVPDRESYVSHMKKSHGRTLKRYPCRQCEQSFHTPNSLRKHIRNNHDTVKKFYTCGYCTEDSPSFPRPSLLESHISLMHGIRNPDLSQTSKVKPPGGHSPQVNHLKRPVSGVGDAPGTSNGATVSSTKRHKSLFQCAKCSFATDSGLEFQSHIPQHQVDSSTAQCLLCGLCYTSASSLSRHLFIVHKVRDQEEEEEEEAAAAEMAVEVAEPEEGSGEEVPMETRENGLEECAGEPLSADPEARRLLGPAPEDDGGHNDHSQPQASQDQDSHTLSPQV
MBD3-GFP
  stoichiometry N: ~0.01 relative to MBD3
